The Human Domainome abundance scans (Beltran et al. 2025)
± gives the uncertainty stated by the source.

B1: Kinesin-like protein KIF16B, residues 1213 to 1273; numbered along this chain, Q96L93 (parent)
chain: ETWTVFRRYSRFREMHKTLKLKYAELAALEFPPKKLFGNKDERVIAERRSHLEKYLRDFFS

Variants of: B1
Assay: abundance fitness (aPCA) (normalised: wild type 0, dead -1); higher = more abundant; growth selection in yeast, the domain comes from the species named
Details: Homo sapiens

**Q.** Which abundance fitness does the source give for ETWTVFRRYSRFREMHKTLKLKYAELAALEFPPKKLFGNKDERVIAERCSHLEKYLRDFFS [R49C] here?
**A.** The abundance fitness was 0.247 ± 0.17.

**Q.** Which abundance fitness does the source give for ETWTVFRRYSRFREMHKTLKLKYAELAALEFPPKKLFGNKDERVIAERYSHLEKYLRDFFS [R49Y] here?
**A.** Its abundance fitness is -0.68 ± 0.29.

**Q.** With ETWTVFRRYSRFREMHKTLKLKYAELAALEFPPKKLFGNKDERVIAERTSHLEKYLRDFFS [R49T] as the variant, how does the abundance fitness read?
**A.** The abundance fitness was -0.286 ± 0.15.

**Q.** Which abundance fitness does the source give for ETWTVFRRYSRFREMHKTLKLKYAELAALEFPPKKLFGNKDERVIAERISHLEKYLRDFFS [R49I] here?
**A.** Its abundance fitness is 0.367 ± 0.18.

**Q.** Which abundance fitness does the source give for ETWTVFRRYSRFREMHKTLKLKYAELAALEFPPKKLFGNKDERVIAERLSHLEKYLRDFFS [R49L] here?
**A.** The abundance fitness was 0.279 ± 0.073.

**Q.** Which abundance fitness does the source give for ETWTVFRRYSRFREMHKTLKLKYAELAALEFPPKKLFGNKDERVIAERMSHLEKYLRDFFS [R49M] here?
**A.** Its abundance fitness is -0.477 ± 0.14.

**Q.** With ETWTVFRRYSRFREMHKTLKLKYAELAALEFPPKKLFGNKDERVIAERVSHLEKYLRDFFS [R49V] as the variant, how does the abundance fitness read?
**A.** The abundance fitness was -0.41 ± 0.11.

**Q.** Which abundance fitness does the source give for ETWTVFRRYSRFREMHKTLKLKYAELAALEFPPKKLFGNKDERVIAERSSHLEKYLRDFFS [R49S] here?
**A.** Its abundance fitness is -0.145 ± 0.058.

**Q.** For ETWTVFRRYSRFREMHKTLKLKYAELAALEFPPKKLFGNKDERVIAERQSHLEKYLRDFFS [R49Q], which abundance fitness is on record?
**A.** The abundance fitness was -0.201 ± 0.14.

**Q.** With ETWTVFRRYSRFREMHKTLKLKYAELAALEFPPKKLFGNKDERVIAERGSHLEKYLRDFFS [R49G] as the variant, how does the abundance fitness read?
**A.** The abundance fitness was -0.01 ± 0.052.

**Q.** With ETWTVFRRYSRFREMHKTLKLKYAELAALEFPPKKLFGNKDERVIAERASHLEKYLRDFFS [R49A] as the variant, how does the abundance fitness read?
**A.** Its abundance fitness is -0.166 ± 0.084.

**Q.** For ETWTVFRRYSRFREMHKTLKLKYAELAALEFPPKKLFGNKDERVIAERPSHLEKYLRDFFS [R49P], which abundance fitness is on record?
**A.** Its abundance fitness is -0.273 ± 0.13.

**Q.** With ETWTVFRRYSRFREMHKTLKLKYAELAALEFPPKKLFGNKDERVIAERKSHLEKYLRDFFS [R49K] as the variant, how does the abundance fitness read?
**A.** The abundance fitness was 0.504 ± 0.21.

**Q.** For ETWTVFRRYSRFREMHKTLKLKYAELAALEFPPKKLFGNKDERVIAERWSHLEKYLRDFFS [R49W], which abundance fitness is on record?
**A.** The abundance fitness was -0.064 ± 0.095.

**Q.** For ETWTVFRRYSRFREMHKTLKLKYAELAALEFPPKKLFGNKDERVIAETRSHLEKYLRDFFS [R48T], which abundance fitness is on record?
**A.** The abundance fitness was -0.363 ± 0.095.

**Q.** Which abundance fitness does the source give for ETWTVFRRYSRFREMHKTLKLKYAELAALEFPPKKLFGNKDERVIAEMRSHLEKYLRDFFS [R48M] here?
**A.** Its abundance fitness is 0.159 ± 0.083.

**Q.** For ETWTVFRRYSRFREMHKTLKLKYAELAALEFPPKKLFGNKDERVIAEVRSHLEKYLRDFFS [R48V], which abundance fitness is on record?
**A.** Its abundance fitness is -0.05 ± 0.064.

**Q.** With ETWTVFRRYSRFREMHKTLKLKYAELAALEFPPKKLFGNKDERVIAESRSHLEKYLRDFFS [R48S] as the variant, how does the abundance fitness read?
**A.** Its abundance fitness is -0.018 ± 0.056.

**Q.** For ETWTVFRRYSRFREMHKTLKLKYAELAALEFPPKKLFGNKDERVIAEYRSHLEKYLRDFFS [R48Y], which abundance fitness is on record?
**A.** The abundance fitness was -0.266 ± 0.16.

**Q.** Which abundance fitness does the source give for ETWTVFRRYSRFREMHKTLKLKYAELAALEFPPKKLFGNKDERVIAEQRSHLEKYLRDFFS [R48Q] here?
**A.** The abundance fitness was -0.291 ± 0.087.

**Q.** With ETWTVFRRYSRFREMHKTLKLKYAELAALEFPPKKLFGNKDERVIAEPRSHLEKYLRDFFS [R48P] as the variant, how does the abundance fitness read?
**A.** The abundance fitness was 0.113 ± 0.11.

**Q.** With ETWTVFRRYSRFREMHKTLKLKYAELAALEFPPKKLFGNKDERVIAEWRSHLEKYLRDFFS [R48W] as the variant, how does the abundance fitness read?
**A.** The abundance fitness was 0.275 ± 0.072.

**Q.** With ETWTVFRRYSRFREMHKTLKLKYAELAALEFPPKKLFGNKDERVIAERRSHTEKYLRDFFS [L52T] as the variant, how does the abundance fitness read?
**A.** The abundance fitness was -0.363 ± 0.091.

**Q.** With ETWTVFRRYSRFREMHKTLKLKYAELAALEFPPKKLFGNKDERVIAERRSHFEKYLRDFFS [L52F] as the variant, how does the abundance fitness read?
**A.** Its abundance fitness is 0.048 ± 0.12.

**Q.** For ETWTVFRRYSRFREMHKTLKLKYAELAALEFPPKKLFGNKDERVIAERRSHREKYLRDFFS [L52R], which abundance fitness is on record?
**A.** Its abundance fitness is -0.473 ± 0.058.

**Q.** With ETWTVFRRYSRFREMHKTLKLKYAELAALEFPPKKLFGNKDERVIAERRSHNEKYLRDFFS [L52N] as the variant, how does the abundance fitness read?
**A.** The abundance fitness was -0.642 ± 0.34.

**Q.** With ETWTVFRRYSRFREMHKTLKLKYAELAALEFPPKKLFGNKDERVIAERRSHGEKYLRDFFS [L52G] as the variant, how does the abundance fitness read?
**A.** The abundance fitness was -0.149 ± 0.047.

**Q.** With ETWTVFRRYSRFREMHKTLKLKYAELAALEFPPKKLFGNKDERVIAERRSHIEKYLRDFFS [L52I] as the variant, how does the abundance fitness read?
**A.** Its abundance fitness is -0.092 ± 0.12.

**Q.** Which abundance fitness does the source give for ETWTVFRRYSRFREMHKTLKLKYAELAALEFPPKKLFGNKDERVIAERRSHWEKYLRDFFS [L52W] here?
**A.** Its abundance fitness is 0.217 ± 0.077.

**Q.** With ETWTVFRRYSRFREMHKTLKLKYAELAALEFPPKKLFGNKDERVIAERRSHMEKYLRDFFS [L52M] as the variant, how does the abundance fitness read?
**A.** Its abundance fitness is -0.131 ± 0.093.

**Q.** With ETWTVFRRYSRFREMHKTLKLKYAELAALEFPPKKLFGNKDERVIAERRSHSEKYLRDFFS [L52S] as the variant, how does the abundance fitness read?
**A.** Its abundance fitness is -0.647 ± 0.1.

**Q.** For ETWTVFRRYSRFREMHKTLKLKYAELAALEFPPKKLFGNKDERVIAERRSHHEKYLRDFFS [L52H], which abundance fitness is on record?
**A.** The abundance fitness was -0.123 ± 0.32.

**Q.** With ETWTVFRRYSRFREMHKTLKLKYAELAALEFPPKKLFGNKDERVIAERRSHVEKYLRDFFS [L52V] as the variant, how does the abundance fitness read?
**A.** The abundance fitness was 0.058 ± 0.059.

**Q.** For ETWTVFRRYSRFREMHKTLKLKYAELAALEFPPKKLFGNKDERVIAERRSHAEKYLRDFFS [L52A], which abundance fitness is on record?
**A.** The abundance fitness was -0.201 ± 0.073.

**Q.** Which abundance fitness does the source give for ETWTVFRRYSRFREMHKTLKLKYAELAALEFPPKKLFGNKDERVIAERRSHPEKYLRDFFS [L52P] here?
**A.** Its abundance fitness is 0.175 ± 0.09.

**Q.** With ETWTVFRRYSRFREMHKTLKLKYAELAALEFPPKKLFGNKDERVIAERRSHQEKYLRDFFS [L52Q] as the variant, how does the abundance fitness read?
**A.** The abundance fitness was -0.866 ± 0.19.

**Q.** Which abundance fitness does the source give for ETWTVFRRYSRFREMHKTLKLKYAELAALEFPPKKLFGNKDERVIAERRSHKEKYLRDFFS [L52K] here?
**A.** Its abundance fitness is -0.184 ± 0.12.

**Q.** For ETWTVFRRYSRFREMHKTLKLKYAELAALEFPPKKLFGNKDERVIAERRSKLEKYLRDFFS [H51K], which abundance fitness is on record?
**A.** The abundance fitness was 0.376 ± 0.085.

**Q.** For ETWTVFRRYSRFREMHKTLKLKYAELAALEFPPKKLFGNKDERVIAERRSRLEKYLRDFFS [H51R], which abundance fitness is on record?
**A.** Its abundance fitness is 0.194 ± 0.071.

**Q.** For ETWTVFRRYSRFREMHKTLKLKYAELAALEFPPKKLFGNKDERVIAERRSILEKYLRDFFS [H51I], which abundance fitness is on record?
**A.** Its abundance fitness is -0.294 ± 0.26.

**Q.** Which abundance fitness does the source give for ETWTVFRRYSRFREMHKTLKLKYAELAALEFPPKKLFGNKDERVIAERRSYLEKYLRDFFS [H51Y] here?
**A.** Its abundance fitness is -0.235 ± 0.11.

**Q.** For ETWTVFRRYSRFREMHKTLKLKYAELAALEFPPKKLFGNKDERVIAERRSMLEKYLRDFFS [H51M], which abundance fitness is on record?
**A.** Its abundance fitness is -0.368 ± 0.17.

**Q.** For ETWTVFRRYSRFREMHKTLKLKYAELAALEFPPKKLFGNKDERVIAERRSWLEKYLRDFFS [H51W], which abundance fitness is on record?
**A.** The abundance fitness was -0.069 ± 0.13.
